Measurements: US20120121583A1 (Genentech, published 2012)

T1: Biotinylated human soluble TWEAK (amino acids 99-249 of SEQ ID NO: 60) (human, UniProt O43508 99-249, biotinylated (sites not given))
T1 construct: Immobilised on the streptavidin sensor in the Biacore half-life assay; also called Human TWEAK; soluble human TWEAK
T1 sequence: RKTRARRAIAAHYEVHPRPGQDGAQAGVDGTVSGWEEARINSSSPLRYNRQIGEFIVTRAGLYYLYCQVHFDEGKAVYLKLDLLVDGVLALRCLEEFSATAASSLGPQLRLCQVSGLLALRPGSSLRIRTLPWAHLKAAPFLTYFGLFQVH

T2: Biotinylated TWEAK (Homo sapiens (Human), UniProt O43508 99-249, Biotinylated for capture on the streptavidin sensor; the site or sites of biotinylation are not stated. The active form is a soluble homotrimer; one protomer is given.)
T2 sequence: T1 sequence

T3: human Flag-tagged soluble TWEAK (amino acids 106-249) (human, UniProt O43508 106-249)
T3 construct: N-terminal placement here is only an order of listing; not shown: Flag tag
T3 sequence: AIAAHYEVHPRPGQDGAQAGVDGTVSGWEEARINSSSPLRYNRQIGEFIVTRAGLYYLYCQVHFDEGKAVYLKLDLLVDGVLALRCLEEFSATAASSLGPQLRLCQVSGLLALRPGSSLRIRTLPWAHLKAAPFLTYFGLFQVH

T4: Human recombinant soluble TWEAK (human, UniProt O43508 99-249)
T4 sequence: T1 sequence

B1: TW-305chi (antibody, human IgG1, kappa, V domains shown)
VH: QEQLVESGGGLVQPGGSLTLSCKASGFDFSTYYMSWVRQAPGKGLEWIGTVYVRQGTTYYASWLNGRFTISSDNAQNTVDLKMNSLTAADTATYFCAKGGYNYDDAFVIWGPGTLVTVSF
VL: AIEMTQTPFSVSAAVGGTVTINCQASQNIYSNLAWYQQKPGQPPKLLMYTASYLASGVPSRFKGSGSRTEYTLTISGVQCADAATYYCQTAYYNSRPDTVAFGGGTEVVVKR
notes: also called chimeric antibody 305; Antibody 305 (chimeric)
B2: TW-301 (antibody, V domains shown)
VH: QSLEESGGGLVKPGASLTLTCTASGFTFNANYWICWVRQAPGKGLEWIACIYGGGNSGAYYASWATGRFTISRTSSTTVTLQMTSLTAADTATYFCARGPISRDLWGPGTLVTVSL
VL: DVVMTQTPASVSEPVGGTVTIKCQASQSIYSSLAWYQQKPGQPPKLLIYDAFDLASGVSSRFTGSGSGTQFTLTISDLECADAATYYCQSTDYGNSWDGNPFGGGTEVVVT
notes: also called Antibody 301; rabbit antibody 301
B3: TW-301chi (antibody, human IgG1, kappa, V domains shown)
VH: B2 VH
VL: DVVMTQTPASVSEPVGGTVTIKCQASQSIYSSLAWYQQKPGQPPKLLIYDAFDLASGVSSRFTGSGSGTQFTLTISDLECADAATYYCQSTDYGNSWDGNPFGGGTEVVVTR
notes: also called chimeric antibody 301

Legend:
[1] = molecular target: T1, Biotinylated human soluble TWEAK (amino …); test: Biacore SPR, biotinylated TWEAK on SA sensor, antibody 100 nM as analyte, 25 C; t1/2 = ln(2)/(60 x kd)
Method: A Biacore 2000 instrument was used with a Biacore streptavidin coated sensor mounted into the system. The system buffer HBS-ET (10 mM HEPES pH 7.4, 150 mM NaCl, 1 mM EDTA, 0.05% Tween® 20) was used at a flow rate of 100 μl/min. The sample buffer was the system buffer. Biotinylated human soluble TWEAK (amino acids 99-249 of SEQ ID NO: 60) and biotinylated murine soluble TWEAK (amino acids 81-225 of SEQ ID NO: 61) was immobilized on different flow cells on the SA sensor at 150 RU each. The flow cell FC1 was used as a blank reference cell. Each antibody was injected into the system as an analyte at 100 nM at 100 μl/min for 2 min association time. The dissociation of the immune complexes were monitored for 5 min. The sensor surface was washed with HBS-ET for 10 seconds and regenerated using 2×2 minutes injections with 10 mM glycine pH 2.25. This procedure was done at 25° C. The kinetically rate limiting step of the complex dissociation phase in the interval [240 s-300 s] was taken to calculate the dissociation rate kd [1/s] (Biacore Evaluation Software 4.0). According to the equation t1/2 diss=ln(2)/(60×kd), the half-life of the immunocomplexes in minutes was calculated.

Biotinylated TWEAK [2] = molecular target: T2, Biotinylated TWEAK; test: Biacore cross-blocking on immobilised biotinylated TWEAK; binding of antibody 2 after saturation with competitor antibody 1 TW-304chi (row), 100 nM each
Method: (§1) Because of the individual biochemical properties of the TWEAK protein another method had to be developed using TWEAK as ligand. Biotinylated TWEAK was immobilized on the streptavidin-coated chip surface and epitope coverage of consecutively injected antibodies (antibody 1) was measured. The aim was to detect the relative binding levels of a secondary antibody (antibody 2) in the presence of an already bound primary antibody. From these relative binding levels a quotient was calculated (Ab2/Ab1, molar ratio given in %, table 7).
(§2) 5 nM of biotinylated TWEAK was immobilized at 20 μl/min for 1 min on a streptavidin coated sensor flow cell. Primary and secondary mAbs were consecutively injected at 10 μl/min for 4 min into the system at 100 nM each until saturation of the respective TWEAK epitopes was achieved. As a reference an SA coated flow cell was used.
(§3) The system was washed with HBS-ET for 20 sec at 30 μl/min followed by two regeneration steps with 1 min at 30 μl/min 6 M GuadHCl and 100 mM HCl. […] The process was repeated by the immobilization of native biotinylated TWEAK protein (feed batch mode) on the same flow cell until the streptavidin sensor surface was completely saturated by biotinylated TWEAK.

Biotinylated TWEAK [3] = molecular target: T2, Biotinylated TWEAK; test: Biacore cross-blocking on immobilised biotinylated TWEAK; binding of antibody 2 after saturation with competitor antibody 1 TW-305chi (row), 100 nM each
Method: as §1, §2, §3

[4] = molecular target: T3, human Flag-tagged soluble TWEAK (amino …); test: competition ELISA: antibody pre-incubated with human Flag-TWEAK 2.5 ng/ml, binding to coated human Fn14:Fc
Method: 96-well Maxisorp® plates (Nunc) were coated with 100 μl 1 μg/ml human Fn14:Fc (extracellular domain of human Fn14 (amino acids 1-75) fused to Fc portion of human IgG1) in PBS per well for 1.5 h at room temperature and blocked with a solution of 5% FBS in PBS for 30 minutes at room temperature under shaking. […] Wells were filled with 100 μl of anti-FLAG-HRP detection antibody, diluted 1:5000 in blocking buffer, and incubated for 1 h at room temperature. After four more wash steps, the signal was developed by addition of 100 μl 3,3,5,5-Tetramethylbenzidine (TMB) solution for approximately ten minutes. The reaction was stopped by adding 100 μl of 1 N HCl, and absorbance measured at 450 nm (reference wavelength 620 nm).

Biotinylated TWEAK [5] = molecular target: T2, Biotinylated TWEAK; test: Biacore cross-blocking on immobilised biotinylated TWEAK; binding of antibody 2 after saturation with competitor antibody 1 TW-301chi (row), 100 nM each
Method: as §1, §2, §3

[6] = molecular target: T4, Human recombinant soluble TWEAK; test: cell-based or functional assay
[7] = molecular target: Mouse soluble TWEAK (mouse) (UniProt O54907); test: competition ELISA: antibody pre-incubated with mouse soluble TWEAK 4 ng/ml, binding to coated mouse Fn14:Fc

Binder | t/2 diss [1] | MR % (Ab2/Ab1 molar ratio) (Biotinylated TWEAK [2]) | MR % (Ab2/Ab1 molar ratio) (Biotinylated TWEAK [3]) | IC50 [4] | MR % (Ab2/Ab1 molar ratio) (Biotinylated TWEAK [5]) | IL-8 Secretion IC50 [6] | IC50 [7]
B1 | 147 min | 3% | 0% | 2.6 ng/mL | 9% | 104 ng/mL | 
B2 |  |  |  | 3.4 ng/mL |  | 128 ng/mL | 4.7 ng/mL
B3 | 110 min | 0% | 0% | 2.8 ng/mL | 0% | 121 ng/mL | 6.4 ng/mL
